Measurements as given in article PMC3981736, “The Domain-Specific and Temperature-Dependent Protein Misfolding Phenotype of Variant Medium-Chain acyl-CoA Dehydrogenase” (PLoS ONE, 2014).

B1: medium-chain acyl-CoA dehydrogenase (MCAD) wild-type (enzyme, human, UniProt P11310-1 26-421, looked up)
chain: KANRQREPGLGFSFEFTEQQKEFQATARKFAREEIIPVAAEYDKTGEYPVPLIRRAWELGLMNTHIPENCGGLGLGTFDACLISEELAYGCTGVQTAIEGNSLGQMPIIIAGNDQQKKKYLGRMTEEPLMCAYCVTEPGAGSDVAGIKTKAEKKGDEYIINGQKMWITNGGKANWYFLLARSDPDPKAPANKAFTGFIVEADTPGIQIGRKELNMGQRCSDTRGIVFEDVKVPKENVLIGDGAGFKVAMGAFDKTRPVVAAGAVGLAQRALDEATKYALERKTFGKLLVEHQAISFMLAEMAMKVELARMSYQRAAWEVDSGRRNTYYASIAKAFAGDIANQLATDAVQILGGNGFNTEYPVEKLMRDAKIYQIYEGTSQIQRLIVAREHIDKYKN
notes: medium-chain acyl-CoA dehydrogenase (MCAD), human, cDNA of the ACADM gene cloned into pMALc2X; also called WT; wild-type MCAD; source: E. coli BL21-CodonPlus, purified (MBPTrap, SEC, Factor Xa cleavage, SEC); not shown: MBP, N-terminal, cleaved
B2: MCAD p.Arg206Cys (enzyme, human, UniProt P11310-1 26-421, looked up)
chain: KANRQREPGLGFSFEFTEQQKEFQATARKFAREEIIPVAAEYDKTGEYPVPLIRRAWELGLMNTHIPENCGGLGLGTFDACLISEELAYGCTGVQTAIEGNSLGQMPIIIAGNDQQKKKYLGRMTEEPLMCAYCVTEPGAGSDVAGIKTKAEKKGDEYIINGQKMWITNGGKANWYFLLACSDPDPKAPANKAFTGFIVEADTPGIQIGRKELNMGQRCSDTRGIVFEDVKVPKENVLIGDGAGFKVAMGAFDKTRPVVAAGAVGLAQRALDEATKYALERKTFGKLLVEHQAISFMLAEMAMKVELARMSYQRAAWEVDSGRRNTYYASIAKAFAGDIANQLATDAVQILGGNGFNTEYPVEKLMRDAKIYQIYEGTSQIQRLIVAREHIDKYKN
notes: medium-chain acyl-CoA dehydrogenase (MCAD), human, ACADM cDNA in pMALc2X with a missense mutation found in newborn screening; number counts on the precursor (initiator methionine +1); also called R206C; p.Arg181Cys; source: E. coli DH5α co-transformed with pGroESL, purified (MBPTrap, SEC, Factor Xa cleavage, SEC); not shown: MBP, N-terminal, cleaved
B3: MCAD p.Tyr67His (enzyme, human, UniProt P11310-1 26-421, looked up)
chain: KANRQREPGLGFSFEFTEQQKEFQATARKFAREEIIPVAAEHDKTGEYPVPLIRRAWELGLMNTHIPENCGGLGLGTFDACLISEELAYGCTGVQTAIEGNSLGQMPIIIAGNDQQKKKYLGRMTEEPLMCAYCVTEPGAGSDVAGIKTKAEKKGDEYIINGQKMWITNGGKANWYFLLARSDPDPKAPANKAFTGFIVEADTPGIQIGRKELNMGQRCSDTRGIVFEDVKVPKENVLIGDGAGFKVAMGAFDKTRPVVAAGAVGLAQRALDEATKYALERKTFGKLLVEHQAISFMLAEMAMKVELARMSYQRAAWEVDSGRRNTYYASIAKAFAGDIANQLATDAVQILGGNGFNTEYPVEKLMRDAKIYQIYEGTSQIQRLIVAREHIDKYKN
notes: medium-chain acyl-CoA dehydrogenase (MCAD), human, ACADM cDNA in pMALc2X with a missense mutation found in newborn screening; number counts on the precursor (initiator methionine +1); also called Y67H; p.Tyr42His; source: E. coli DH5α co-transformed with pGroESL, purified (MBPTrap, SEC, Factor Xa cleavage, SEC); not shown: MBP, N-terminal, cleaved
B4: MCAD p.Tyr158His (enzyme, human, UniProt P11310-1 26-421, looked up)
chain: KANRQREPGLGFSFEFTEQQKEFQATARKFAREEIIPVAAEYDKTGEYPVPLIRRAWELGLMNTHIPENCGGLGLGTFDACLISEELAYGCTGVQTAIEGNSLGQMPIIIAGNDQQKKKYLGRMTEEPLMCAHCVTEPGAGSDVAGIKTKAEKKGDEYIINGQKMWITNGGKANWYFLLARSDPDPKAPANKAFTGFIVEADTPGIQIGRKELNMGQRCSDTRGIVFEDVKVPKENVLIGDGAGFKVAMGAFDKTRPVVAAGAVGLAQRALDEATKYALERKTFGKLLVEHQAISFMLAEMAMKVELARMSYQRAAWEVDSGRRNTYYASIAKAFAGDIANQLATDAVQILGGNGFNTEYPVEKLMRDAKIYQIYEGTSQIQRLIVAREHIDKYKN
notes: medium-chain acyl-CoA dehydrogenase (MCAD), human, ACADM cDNA in pMALc2X with a missense mutation found in newborn screening; number counts on the precursor (initiator methionine +1); also called Y158H; p.Tyr133His; source: E. coli DH5α co-transformed with pGroESL, purified (MBPTrap, SEC, Factor Xa cleavage, SEC); not shown: MBP, N-terminal, cleaved
B5: MCAD p.Asp266Gly (enzyme, human, UniProt P11310-1 26-421, looked up)
chain: KANRQREPGLGFSFEFTEQQKEFQATARKFAREEIIPVAAEYDKTGEYPVPLIRRAWELGLMNTHIPENCGGLGLGTFDACLISEELAYGCTGVQTAIEGNSLGQMPIIIAGNDQQKKKYLGRMTEEPLMCAYCVTEPGAGSDVAGIKTKAEKKGDEYIINGQKMWITNGGKANWYFLLARSDPDPKAPANKAFTGFIVEADTPGIQIGRKELNMGQRCSDTRGIVFEDVKVPKENVLIGGGAGFKVAMGAFDKTRPVVAAGAVGLAQRALDEATKYALERKTFGKLLVEHQAISFMLAEMAMKVELARMSYQRAAWEVDSGRRNTYYASIAKAFAGDIANQLATDAVQILGGNGFNTEYPVEKLMRDAKIYQIYEGTSQIQRLIVAREHIDKYKN
notes: medium-chain acyl-CoA dehydrogenase (MCAD), human, ACADM cDNA in pMALc2X with a missense mutation found in newborn screening; number counts on the precursor (initiator methionine +1); also called D266G; p.Asp241Gly; source: E. coli DH5α co-transformed with pGroESL, purified (MBPTrap, SEC, Factor Xa cleavage, SEC); not shown: MBP, N-terminal, cleaved
B6: MCAD p.Lys329Glu (enzyme, human, UniProt P11310-1 26-421, looked up)
chain: KANRQREPGLGFSFEFTEQQKEFQATARKFAREEIIPVAAEYDKTGEYPVPLIRRAWELGLMNTHIPENCGGLGLGTFDACLISEELAYGCTGVQTAIEGNSLGQMPIIIAGNDQQKKKYLGRMTEEPLMCAYCVTEPGAGSDVAGIKTKAEKKGDEYIINGQKMWITNGGKANWYFLLARSDPDPKAPANKAFTGFIVEADTPGIQIGRKELNMGQRCSDTRGIVFEDVKVPKENVLIGDGAGFKVAMGAFDKTRPVVAAGAVGLAQRALDEATKYALERKTFGKLLVEHQAISFMLAEMAMEVELARMSYQRAAWEVDSGRRNTYYASIAKAFAGDIANQLATDAVQILGGNGFNTEYPVEKLMRDAKIYQIYEGTSQIQRLIVAREHIDKYKN
notes: medium-chain acyl-CoA dehydrogenase (MCAD), human, ACADM cDNA in pMALc2X with a missense mutation found in patients; number counts on the precursor (initiator methionine +1); also called K329E; p.Lys304Glu; source: E. coli DH5α co-transformed with pGroESL, purified (MBPTrap, SEC, Factor Xa cleavage, SEC); not shown: MBP, N-terminal, cleaved
B7: MCAD p.Ala52Val (enzyme, human, UniProt P11310-1 26-421, looked up)
chain: KANRQREPGLGFSFEFTEQQKEFQATVRKFAREEIIPVAAEYDKTGEYPVPLIRRAWELGLMNTHIPENCGGLGLGTFDACLISEELAYGCTGVQTAIEGNSLGQMPIIIAGNDQQKKKYLGRMTEEPLMCAYCVTEPGAGSDVAGIKTKAEKKGDEYIINGQKMWITNGGKANWYFLLARSDPDPKAPANKAFTGFIVEADTPGIQIGRKELNMGQRCSDTRGIVFEDVKVPKENVLIGDGAGFKVAMGAFDKTRPVVAAGAVGLAQRALDEATKYALERKTFGKLLVEHQAISFMLAEMAMKVELARMSYQRAAWEVDSGRRNTYYASIAKAFAGDIANQLATDAVQILGGNGFNTEYPVEKLMRDAKIYQIYEGTSQIQRLIVAREHIDKYKN
notes: medium-chain acyl-CoA dehydrogenase (MCAD), human, ACADM cDNA in pMALc2X with a missense mutation found in newborn screening; number counts on the precursor (initiator methionine +1); also called p.Ala27Val; A27V; source: E. coli DH5α co-transformed with pGroESL, purified (MBPTrap, SEC, Factor Xa cleavage, SEC); not shown: MBP, N-terminal, cleaved
B8: MCAD p.Arg334Lys (enzyme, human, UniProt P11310-1 26-421, looked up)
chain: KANRQREPGLGFSFEFTEQQKEFQATARKFAREEIIPVAAEYDKTGEYPVPLIRRAWELGLMNTHIPENCGGLGLGTFDACLISEELAYGCTGVQTAIEGNSLGQMPIIIAGNDQQKKKYLGRMTEEPLMCAYCVTEPGAGSDVAGIKTKAEKKGDEYIINGQKMWITNGGKANWYFLLARSDPDPKAPANKAFTGFIVEADTPGIQIGRKELNMGQRCSDTRGIVFEDVKVPKENVLIGDGAGFKVAMGAFDKTRPVVAAGAVGLAQRALDEATKYALERKTFGKLLVEHQAISFMLAEMAMKVELAKMSYQRAAWEVDSGRRNTYYASIAKAFAGDIANQLATDAVQILGGNGFNTEYPVEKLMRDAKIYQIYEGTSQIQRLIVAREHIDKYKN
notes: medium-chain acyl-CoA dehydrogenase (MCAD), human, ACADM cDNA in pMALc2X with a missense mutation found in newborn screening; number counts on the precursor (initiator methionine +1); also called R334K; p.Arg309Lys; source: E. coli DH5α co-transformed with pGroESL, purified (MBPTrap, SEC, Factor Xa cleavage, SEC); not shown: MBP, N-terminal, cleaved
B9: MCAD p.Arg413Ser (enzyme, human, UniProt P11310-1 26-421, looked up)
chain: KANRQREPGLGFSFEFTEQQKEFQATARKFAREEIIPVAAEYDKTGEYPVPLIRRAWELGLMNTHIPENCGGLGLGTFDACLISEELAYGCTGVQTAIEGNSLGQMPIIIAGNDQQKKKYLGRMTEEPLMCAYCVTEPGAGSDVAGIKTKAEKKGDEYIINGQKMWITNGGKANWYFLLARSDPDPKAPANKAFTGFIVEADTPGIQIGRKELNMGQRCSDTRGIVFEDVKVPKENVLIGDGAGFKVAMGAFDKTRPVVAAGAVGLAQRALDEATKYALERKTFGKLLVEHQAISFMLAEMAMKVELARMSYQRAAWEVDSGRRNTYYASIAKAFAGDIANQLATDAVQILGGNGFNTEYPVEKLMRDAKIYQIYEGTSQIQRLIVASEHIDKYKN
notes: medium-chain acyl-CoA dehydrogenase (MCAD), human, ACADM cDNA in pMALc2X with a missense mutation found in newborn screening; number counts on the precursor (initiator methionine +1); also called R413S; p.Arg388Ser; source: E. coli DH5α co-transformed with pGroESL, purified (MBPTrap, SEC, Factor Xa cleavage, SEC); not shown: MBP, N-terminal, cleaved

Target: the molecule itself
Test: SEC; re-chromatography after Factor Xa cleavage of the MBP tag; HiLoad 16/600 Superdex 200, 20 mM HEPES pH 7.0, 200 mM NaCl, 4 °C; tetrameric fraction pooled

Protein | stoichiometry N
B1 | 4
B2 | 4
B3 | 4
B4 | 4
B5 | 4
B6 | 4
B7 | 4
B8 | 4
B9 | 4
